Legend:
Experiment in all cases: cell-based or functional assay
[1] = target: hTrkB-a isoform fused to a small peptide epitope, in U2OS cells (Discoverx Pathhunter) (human) (UniProt Q16620)
[2] = target: hTrkA in the SHC1 recruitment assay (U2OS, Discoverx Pathhunter) (human) (UniProt P04629)
[3] = target: hTrkC in the SHC1 recruitment assay (U2OS, Discoverx Pathhunter) (human) (UniProt Q16288)
hTrkC in the SHC1 recruitment assay (U2OS, Discoverx Pathhunter) (human), sequence (Q16288 32-839): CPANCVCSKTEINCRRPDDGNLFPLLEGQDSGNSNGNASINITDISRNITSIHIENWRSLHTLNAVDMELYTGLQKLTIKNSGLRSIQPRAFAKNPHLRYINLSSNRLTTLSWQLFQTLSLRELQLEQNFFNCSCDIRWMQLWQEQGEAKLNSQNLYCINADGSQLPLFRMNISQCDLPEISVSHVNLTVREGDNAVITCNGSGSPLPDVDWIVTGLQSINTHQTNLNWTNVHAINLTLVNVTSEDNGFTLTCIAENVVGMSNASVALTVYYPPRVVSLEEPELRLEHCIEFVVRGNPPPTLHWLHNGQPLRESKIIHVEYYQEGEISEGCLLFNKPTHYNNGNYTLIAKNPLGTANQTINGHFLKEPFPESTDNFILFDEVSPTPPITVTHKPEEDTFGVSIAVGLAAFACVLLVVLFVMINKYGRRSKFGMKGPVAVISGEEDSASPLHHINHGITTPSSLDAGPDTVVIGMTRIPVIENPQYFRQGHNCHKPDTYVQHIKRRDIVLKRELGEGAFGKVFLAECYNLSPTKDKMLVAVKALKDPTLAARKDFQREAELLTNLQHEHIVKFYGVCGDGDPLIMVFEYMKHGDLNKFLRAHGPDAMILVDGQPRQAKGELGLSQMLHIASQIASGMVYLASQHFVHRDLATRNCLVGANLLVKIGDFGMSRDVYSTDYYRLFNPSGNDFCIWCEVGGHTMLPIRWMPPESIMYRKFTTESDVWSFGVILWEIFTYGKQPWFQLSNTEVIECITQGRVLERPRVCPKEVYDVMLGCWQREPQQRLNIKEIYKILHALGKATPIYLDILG

hTrkB-a isoform fused to a small peptide epitope, in U2OS cells (Discoverx Pathhunter) (human), sequence (Q16620 32-822): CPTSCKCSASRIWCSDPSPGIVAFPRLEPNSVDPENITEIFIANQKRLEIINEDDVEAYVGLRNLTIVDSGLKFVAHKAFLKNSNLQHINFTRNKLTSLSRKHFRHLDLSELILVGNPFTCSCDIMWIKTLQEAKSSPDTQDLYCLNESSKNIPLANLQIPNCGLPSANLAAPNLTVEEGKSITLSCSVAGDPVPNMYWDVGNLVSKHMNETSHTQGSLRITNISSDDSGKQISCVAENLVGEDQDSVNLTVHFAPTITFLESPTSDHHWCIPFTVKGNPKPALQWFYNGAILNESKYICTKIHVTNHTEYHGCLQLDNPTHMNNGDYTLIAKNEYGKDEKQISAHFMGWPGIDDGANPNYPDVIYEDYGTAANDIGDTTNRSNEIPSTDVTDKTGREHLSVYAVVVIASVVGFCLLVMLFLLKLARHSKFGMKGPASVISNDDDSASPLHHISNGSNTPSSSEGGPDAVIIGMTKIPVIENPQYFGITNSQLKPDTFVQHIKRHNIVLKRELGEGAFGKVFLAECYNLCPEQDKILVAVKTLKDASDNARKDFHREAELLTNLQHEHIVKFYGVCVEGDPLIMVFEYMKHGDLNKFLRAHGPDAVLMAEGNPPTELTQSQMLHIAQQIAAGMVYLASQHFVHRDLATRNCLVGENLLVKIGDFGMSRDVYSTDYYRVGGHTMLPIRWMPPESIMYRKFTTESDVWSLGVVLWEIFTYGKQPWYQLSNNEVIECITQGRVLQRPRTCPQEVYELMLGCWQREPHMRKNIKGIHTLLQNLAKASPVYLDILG
hTrkA in the SHC1 recruitment assay (U2OS, Discoverx Pathhunter) (human), sequence (P04629 33-796): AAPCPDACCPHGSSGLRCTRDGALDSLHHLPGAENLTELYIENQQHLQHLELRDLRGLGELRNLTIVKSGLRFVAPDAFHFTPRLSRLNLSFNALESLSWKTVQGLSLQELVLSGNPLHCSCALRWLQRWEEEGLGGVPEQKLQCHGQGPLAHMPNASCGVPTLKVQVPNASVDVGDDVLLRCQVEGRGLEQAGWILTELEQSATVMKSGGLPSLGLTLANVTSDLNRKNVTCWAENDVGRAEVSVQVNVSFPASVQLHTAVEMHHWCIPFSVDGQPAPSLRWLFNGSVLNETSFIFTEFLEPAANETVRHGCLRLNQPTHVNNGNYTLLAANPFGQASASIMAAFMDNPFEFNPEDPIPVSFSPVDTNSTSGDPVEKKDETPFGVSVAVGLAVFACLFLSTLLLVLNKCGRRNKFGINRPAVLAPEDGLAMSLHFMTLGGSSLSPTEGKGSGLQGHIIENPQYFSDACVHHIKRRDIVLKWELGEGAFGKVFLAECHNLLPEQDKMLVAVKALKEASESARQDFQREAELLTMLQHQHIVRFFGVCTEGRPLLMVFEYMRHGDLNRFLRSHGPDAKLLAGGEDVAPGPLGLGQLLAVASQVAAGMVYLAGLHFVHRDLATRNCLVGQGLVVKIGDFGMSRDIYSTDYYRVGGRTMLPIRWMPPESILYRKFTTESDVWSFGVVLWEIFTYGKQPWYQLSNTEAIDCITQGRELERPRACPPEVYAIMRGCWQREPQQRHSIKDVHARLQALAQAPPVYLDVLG
NGF (R&D 256GF) (ligand), sequence (P01138 122-241): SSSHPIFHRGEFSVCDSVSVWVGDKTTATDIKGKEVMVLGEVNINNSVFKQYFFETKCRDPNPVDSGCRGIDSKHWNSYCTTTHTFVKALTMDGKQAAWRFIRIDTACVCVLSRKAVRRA

| EC50, SHC1 recruitment assay [1] [nM] | Fold-increase, SHC1 recruitment assay [2] [fold] | Fold-increase, SHC1 recruitment assay [1] [fold] | Fold-increase, SHC1 recruitment assay [3] [fold] | Substance |
| --- | --- | --- | --- | --- |
| 1.59 |  |  |  | NGF (R&D 256GF) (ligand) |
|  | 1.1 | 1.1 | 1 | hIgG control antibody |
